Data from the nanobody polyreactivity screen of Harvey et al. (2022).

Test: yeast display, Sf9 membrane polyspecificity reagent, FACS + sequencing; frameworks hold sequencing errors
Method in brief: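 Nanobodies from a synthetic yeast display library (Saccharomyces cerevisiae BJ5465), induced 36–48 hours with galactose, were stained 1 hour at 4 °C with 10% biotinylated, detergent-solubilized Sf9 membrane reagent, enriched on streptavidin microbeads, then FACS-sorted. Anti-HA (expression) and streptavidin (reagent binding) fluorescence set low and high (top ~1%) gates. Polyreactivity labels come from the gate of origin. Genes were colony-PCR amplified, MiSeq 2 × 250 sequenced and filtered by CDR length.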

Row | Sequence | polyreactivity (PSR sort gate)
1 | QVQLVESGGGLVQTGGSLRLSCASSGRIFFDNAMGWYSQAPGKERELVAGIDSGGSTYYADSVKGRFSISRDNAKNTVYLQMNRLKPEDTAVYYCNADYPPSTQSPLLQSYDYWGHGTQVTVSS | low polyreactivity
2 | QVQLQESGGGLVLAGGSLRLSCSASGNISVYGSMGWYRQSPGKEREFVATIDPGTNTNYADSVKDRFTISRDYAKNSVYLQMNSLKPEDTAVYYCAVEAGSDWPYRYWGQGTQVTVSS | low polyreactivity
3 | QVQLVESGRGLVQAGGSLRLSCAASGSTFKDYPMGWYRQAPGKESELVARISTRVGSTYYPDSVKGRFTISRDNAKNTVYLQMNRLNPEDTAVFYCNARWWYPPYYYWGQGTQVSVSS | high polyreactivity
4 | QVQLVESGGGLVQAGGSLRLSCAASGRIFDYYAMGWYRQAPGKERELVAAISSSVGNTYYADSVKGRFTISRDNAKNTVYLQMNSLKPEDTAVYYFADYSYVRSSYEVEDDYWGQGTQVTVSS | low polyreactivity
5 | QVQLVESGGGLVQAGGSLRLSCAASGFTFKYNAMGWYRQAPGKERELVAAISSSGSTNYADSVKGRFTISRDNAKNTVYLQMNSLKPEDTAVYYCAARWRSVLAAGTRPVSFDYWGQGTQVTVSS | low polyreactivity
6 | QVQLVESGGGLVQAGGSLRLSCAASGRNFKNYDMVWYRQAPGKERELVADISWRSGSTNYSDSVKGRFTISRDNAKNNVYLQMNSLKPEDTAVYYCASKRRISGWSQFTSYADFDYWGQGTQVTVSS | low polyreactivity
7 | QVQLVESGGGLVQAGGSLRLSCAASGFTFITYAMGGHRQAPGKERELVAAIRTGGGTNYADSVKGRFTISRDNAKNTVYLQMNSLKPEDTAVYYCAKGRQGVSYLTGTYGCRYYWGQGTQVTVSS | low polyreactivity
8 | QVQLVESGGGLVQAGGSLRLSCAASGLTFTYYALGWYRQAPGKERELVAAISSSGSDTYYADSVKGRFTISRDNAKNTVYLQMNSLKPEDTAVYYCAAVLTGLSPDFEYEYWGQGTQVTVSS | low polyreactivity
9 | QVQLVESGGGLVQAVGSLRLSCAASGRTSPRNAMGWYRQAPGKERELVAAINRTGGTTYYSDSVKGRFTISRDNAKNTVYLQMNSLIPEDTAVYYCAADVWVSTSGDWFRYDYWGQGTQVTVSS | high polyreactivity
10 | QVQLVESGGGLVQAGGSLRLSCAASGSIFVPYAMGWYRQAPGKERELVAAISSSTASTYYADSVKGRFTISRDNAKNTVYLQMNRLKPEETAVYYFNAEQWDYGVRVAHYDYWGQGTQVTVSS | low polyreactivity
11 | QVQLVESGGGLVQAGGSLRLSCAASGNIFSKYAMGWYRQAPGKERELVAAISRSGGRTYYADSVKGRFTISRDNAKNTVYLQMNSLNPEDTAFYYCNKAQRHYPYDYWGQGTQVTVSS | high polyreactivity
12 | QVQLVESGGGLDQAGGSLRLSCAASGSTFSRYAMGWYRQPPGKERELVAAISWRGGSTYYADSVKGRFTISRDNAKNTVYLQMNSLKPEDTAVYYCNKAGFWFVVYKRQEYWGQGTQVTVSS | high polyreactivity
13 | LVQLVESGGGLGQAGGSLRLSCAASGFTFTIYAMGWYRQAPGKERELVAAISSSGYSTYYADSVKGRFTISRDNAKNTVYFQMISLKPEDTAVYYCAARGYYRSHLGFLYDYWGQGTQVTVSS | high polyreactivity
14 | QVQLVESGGGLVQAGGSLRLSCAASGRTFSYNTMGWYRQAPGKERELVAAIDSDGSTNYADSVKGRFTISRDNAKNTVYLQMNSLKPEDTAVYYCAADRFQCGFWWLEYWGQGTQVTVSS | high polyreactivity
15 | QVQLVESGGGLVQAGGSLRLSCAASGRTFGYYAMGWYRQAPGKERELVAAISRSGGSTYYADSVKGRFTISRDNAKNTVYLQMNSLKPEDTAVYYCAVKGYVKSDYWGQGTQVTVSS | high polyreactivity
16 | QVQLVESGGGLVQAGGSLRLSCAASGSTFYIYAMGWYRQAPGKERELVATISRGGSTNYADSVKGRFTISRDNAKNTVYLQMNSLKPEDTAVYYCAAEAAFTSYWWSVTYPYDYWGQGTQVTVSS | high polyreactivity
17 | QVQLVESGVGLVQAGGSLRLSCAASGSIFDINAMGWYRQAPGKERELVAVITDSGSTYYADSVKGRFTISRDNAKNTVYLQMNSLKPEDTAVYYCAAESSLLFFLMDYWGQGTQVTVSS | low polyreactivity
18 | QVQLVESCGGLVQAGGSHRLSCAASGRIFGVYVMGWYRQAPGKERELVAAISWSCSHTYYADSVKGRYTISRDNAKNTVYLQMNSLKPEDTAVYYCNADSYPDYTGPGLDWYDYWGHGTQVTVSS | low polyreactivity
19 | QVQLVETGGGLVQAGGSLRLSCAASGSIFGDNAMGWYRQAPGKERELVAAIDQSGDSTYYADSVKGRFTISRDNAKNTVYLQMNSLKPEDTAVYYCAAQSYDYWYDYDYWGQGTQVTVSS | high polyreactivity
20 | QVQLVESGGGLVQAGGSLRLSCAASGSTFYINTMGRYLQAPGKEREFVAAITWSGGSTYYADSVKGRFTISRDNAKNTVYLQMNSLKPEDTAVYYCAADLYVGDMDYWGQCTQVTVSS | low polyreactivity
21 | QVQLVESGGGIVQAGGSLRLSCAASGSIVGQYAMGWYRQPPGKERELVAAITSGGRTNYADSVTGRFTISRDNAKNTVYVQMNRLKPEDTAVYYCAARGWVWYYWGQGTQVTVSS | high polyreactivity
22 | QVQLVESGRGLVQAGGSLRLSCAASGRTFWIYAMGWYRQAPGKERELVAAISRGGSTYADSVKGRFTISRDNAKNTVYLQMNSLKPEDTAVYYCAASTPQYQYYYWGQGTQVTVSS | high polyreactivity

Row | Sequence | polyreactivity (PSR sort gate)
23 | QVQLVESGGGLVQAGGSLRLSCAASGFTFDYNAMGWYRQAPGKERELVAAISNTGDSTYYADSVKGRFTISRDNAKNTVYLQMNSLKPEDTAVYYCAATSVPRYYYWGQGTQVTVSS | low polyreactivity
24 | QVQLVESGGGLVQAGGSLRLSCAASGRILTTNAMGLYRQETGKERELVAAITRSGGRTYYADSVKGRFTISRDNAKNTVYLQMNSLKPEDTAVYYCNAVTTRLALYDYWGQGTQVTVSS | high polyreactivity
25 | QVQLVESGGGLVQAGGSLRLSCAASGSFLEPYSMGRYRQATGKERELVAAISFSDTSTYYADSVKGRFTISRDNAKNTVYLQMNSLKQEDTAVYYCAATYVLYWGYEYDYWGQGTQVTVSS | high polyreactivity
26 | QVQLVESGGGLVQAGGSLRLSCAASGRIVNRYAMGWDRQAPVKERELVAAITYNGGSTYYADSVKGRFTISRDNAKNTVYLQMNSLKPVDTAVYYCNAVEVLDEGWGFWYYYWGQGTQVTVSS | high polyreactivity
27 | QDQLVESGGGLFQAGGSLRLICAASGFIFSSYDMGWDRQAPGKERELVAAITTVGSRIYADSVKGRFTISRDNAKNTVDLQMNCLKPEDSAVYVCATVPGGSWLVLWWSTGGDDEYWGHGTQVTVSS | low polyreactivity
28 | QVQLVESGAGLVQAGGSLRFSCAASGFIFVAYAMGLYRPAPGKERELVAAITSSGGTTYYADSVKGRFTISRDNAKNSVYFQMNSLKPEDTAVYYSAAYRRRSPFEYWGQGTQVNVSS | high polyreactivity
29 | QVQIVESGRGLVQAGGSLRLSCAPSGFTLGFFAMGWYRQAPGKERELVAAINWRGGSTYYADSVKVRFTISRDNAKNTVYLQMNSLKPEDTAVYYCNRVYRPSRYDYWGQGTQVTVSS | high polyreactivity
30 | QVLLVESGGGLVQAGGSLRISCAASGRISSRNAMGWYRQAPGKERELVAGITSGGSTNYADSLKGRFTISRDNAKNTVYLQMNSLKPEDTAVYYCAKRSRTYRYGYDYWGQGTQVTVSS | high polyreactivity
31 | QVQLVESGGGLVQAGGSLRLSCAASGFTLYSNTMGWYRQAPGKERELVAAINYSGGSTYYADSVKGRFTISRDNAKNTVYLQMNSLKPQDTAVYYCATDLHWLVTKYGYWGQGTQVTVSS | low polyreactivity
32 | QVQLVESGGGLVQAGGSLRLSCAASGRTFRRYAMGWYRQAPGKERELVAAIRSDGSTYYADSVKGRFTISRDNAKNTVYLQMNSLKPEDTAVYYCAKVLDQRRRYDYWGQGTQVTVSS | low polyreactivity
33 | QVQLVESGGGLVQAGGSLRLSCAASGRIFVGYAMGWYRQAPGKEREFVAAITFRGGTTYYADSVKGRFTITRDYAKNTVYLQMNSLKPEDTAVYYCAVPLYLYSVEYGYWGQGNQVTVSS | low polyreactivity
34 | QVQLVESGGGLVQAGGSLRLTCAGSGSTYGKYAIGGYRQAPGKERQLVAAISYRGGRTFYADSVKGRFTISRDNAKNTVFLQMKSLKPEDTAVYYCAAYPGVSRGTGPRRYDYWGQGTQVTVSS | high polyreactivity
35 | QVQLVESGGGLVQAGGSLRLSCAASGSTFRFYAMGWYRQAPGKERELVAVISFNDGSTYYADSVKGRFTISRDNAKNTVYLQMNSLKPEDTAVYYCATDELDSWWYEYEYWGQGTQVTVSS | low polyreactivity
36 | QVQLVESGGGLVQAGGSLRLSCAASGFTFKYYAMGWYRQAPGKERELVARISWSGGSTYYADSVKGRFTISRDNAKNTFFLQMNSLKPEDTAVYYCNTDFGYGFDYWGQGTQVSVSS | high polyreactivity
37 | QVQLVESGGGLVQAGGSLRLSCAASGFTFRYYAMGWYRQAPGKERELVAAISRSDSRTYADSVKGRFTISRDNAKNTVYLQMTSLNPEDTAVYYCAARIRPLYANVRYGYWGQGTQVTVSS | high polyreactivity
38 | QVQLVESGGGLVQAGGSLRLSCAASAYNFDGYAMGWYRQAPGKERELVAAINSGGGTYYADSVKGRFTISRDNAKNTVYLQMNSLKPEDTAVYYCAKYTYDYWGQGTQVTVSS | low polyreactivity
39 | QVQLVESGGGLVQAGGSLRLSCAASGSIFATYAMGWYRQAPGKERELVAAITSSDGSTNYADSVKGRFTISRDNAKNTVYLQMNSLKPEDTAVYYCATDAPDRTDSDSGFDAGYDYWGQGTQVTLSS | low polyreactivity
40 | QVQLVESGGGLVQAGGRLSLSSAASGITFRNYAMGWYRQAPGKERQLVAAISRRGGSTYYADSVKGRFTISRDNAKNTVYLQMNSLKPEDTAVYYCAKSPDTAKEYDYWGQGTQVTVSS | high polyreactivity
41 | QVQLVESGGGLVQAGGSLRLSCAASGYTFLVNAMGWYRQAPGKERELVAAISSGGSTYYADSVKGRFTISRDNAKNTVYLQMNSLKPEDTAVYYCAAPTDFLFWEFDYWGQGTQVTVSS | low polyreactivity
42 | QVQLVESGGGLVQAGGSLRLSCAASGGTFRLYAMGWYRQAPGKDRELVAAITGVGSTNYADSVKGRFTISRDNAKNTVYLQMNSLKPEDTAVYYCAAYYWSQVLIQGYYSWGQGTQVTVSS | high polyreactivity
43 | QVQLEESGRGLVPAGGSLRLSCAASGFTFDYNTMGWYRQAPGKERELVAAISFRGTSTYYADSVKGRFTISRDNAKNTVYLQMNSLKREDTAVYYCATRDYHVPGRFYYWGQGTQVTVSS | high polyreactivity
